Data as given in patent US5935824.

Legend:
[1] = target: MBP/IgG fusion protein encoded by pMA2-TH-IgG-9 (E. coli; human)
[2] = target: N-CBZ-Phe-Ala
[3] = target: Lys-Lys peptide Pro-Leu-Ser-Arg-Leu-Ser-Val-Ala-Lys-Lys
[4] = target: N-CBZ-Gly-Pro-Leu-Ala-Pro
[5] = target: N-CBZ-Pro-Phe
[6] = target: N-CBZ-Ala-Leu
[7] = target: N-CBZ-Gly-Pro
[8] = target: N-CBZ-Glu-Tyr
[9] = target: N-CBZ-Ala-Pro
[10] = target: control peptide Ala-Leu-Lys-Asp-Ala-Gln-Thr-Asn-Ser-Ser-Ser-Phe

Row | Substance | cleavage of the fusion protein, time course on SDS-PAGE (% cleaved after 5 minutes) [1] | rate of digestion at the flow rate of 4 ml/minute [2] | first order rate constant of hydrolysis of the Lys-Lys bond, ninhydrin assay of free lysine [3] | kinetic constant of hydrolysis of the remaining Pro-Leu bond, ninhydrin assays of released amino acids [4] | K^1 min^-1 (first order rate constant, flow digestion at 2 ml/min) [5] | K^1 min^-1 (first order rate constant, flow digestion at 2 ml/min) [6] | K^1 min^-1 (first order rate constant, flow digestion at 2 ml/min) [7] | K^1 min^-1 (first order rate constant, flow digestion at 2 ml/min) [8] | K^1 min^-1 (first order rate constant, flow digestion at 2 ml/min) [9] | removal of the carboxy-terminal phenylalanine, HPLC of the digestion products [10]
1 | thrombin (Sigma) (enzyme) | 75 | – | – | – | – | – | – | – | – | –
2 | carboxypeptidase Y (from UniProt P00729) (enzyme) | – | 42 µmol/min | 0.16 min⁻¹ | 18.4 min⁻¹ | 1.48 min⁻¹ | 27.5 min⁻¹ | 0.16 min⁻¹ | 24.2 min⁻¹ | 22.4 min⁻¹ | 96%
